Source: patent EP0832229B1
Where “and” joins values, the source holds several entries; their conditions need not be identical. Equal entries are not always repeated.

B1: wild type CD40 ligand/zipper domain fusion protein (WT) expressed in yeast (ligand, part only; not given: leucine zipper sequence, part only)
chain, part: MQRGDEDPQIAAHVVSEANSNAASVLQWAKKGYYTMKSNLVMLENGKQLTVKREGLYYVYTQVTFCSNREPSSQRPFIVGLWLKPSSGSERILLKAANTHSSSQLCEQQSVHLGGVFELQAGASVFVNVTEASQVIHRVGFSSFGLLKL

How the values were obtained:
[1] = biological target: CD40/Fc fusion protein (extracellular domain of human CD40 fused to the Fc domain of human IgG1) (human) (UniProt P25942); test: BIAcore SPR, CD40/Fc captured by goat anti-human IgG1 Fc; experiment 1
[2] = biological target: CD40/Fc fusion protein (extracellular domain of human CD40 fused to the Fc domain of human IgG1) (human) (UniProt P25942); test: BIAcore SPR, CD40/Fc captured by goat anti-human IgG1 Fc; K1 (site 1); experiment 1
[3] = biological target: CD40/Fc fusion protein (extracellular domain of human CD40 fused to the Fc domain of human IgG1) (human) (UniProt P25942); test: BIAcore SPR, CD40/Fc captured by goat anti-human IgG1 Fc; K2 (site 2); experiment 1
[4] = biological target: CD40/Fc fusion protein (extracellular domain of human CD40 fused to the Fc domain of human IgG1) (human) (UniProt P25942); test: BIAcore SPR, CD40/Fc captured by goat anti-human IgG1 Fc; experiment 2
[5] = biological target: CD40/Fc fusion protein (extracellular domain of human CD40 fused to the Fc domain of human IgG1) (human) (UniProt P25942); test: BIAcore SPR, CD40/Fc captured by goat anti-human IgG1 Fc; K1 (site 1); experiment 2
[6] = biological target: CD40/Fc fusion protein (extracellular domain of human CD40 fused to the Fc domain of human IgG1) (human) (UniProt P25942); test: BIAcore SPR, CD40/Fc captured by goat anti-human IgG1 Fc; K2 (site 2); experiment 2
CD40 on B cells = CD40 on B cells (UniProt P25942); test: cell-based or functional assay
[7] = biological target: CD40/Fc fusion protein (extracellular domain of human CD40 fused to the Fc domain of human IgG1) (human) (UniProt P25942); test: biosensor (BIAcore) assay substantially as in Example 3, CD40/Fc captured
[8] = biological target: CD40/Fc fusion protein (extracellular domain of human CD40 fused to the Fc domain of human IgG1) (human) (UniProt P25942); test: BIAcore SPR substantially as in Example 3; K1; average of two preparations
[9] = biological target: CD40/Fc fusion protein (extracellular domain of human CD40 fused to the Fc domain of human IgG1) (human) (UniProt P25942); test: BIAcore SPR substantially as in Example 3; K2; average of two preparations

Molecule	Site 1 (mol/mol CD40/Fc) (mol/mol CD40/Fc) [1]	Site2 (mol/mol CD40/Fc) (mol/mol CD40/Fc) [1]	Ka [2]	Ka [3]	Site2 (mol/mol CD40/Fc) (mol/mol CD40/Fc) [4]	further results
trimeric murine CD40L (oligomerizing zipper, Flag octapeptide, extracellular region of murine CD40L) (from UniProt P27548 47-260) (ligand)	0.02	0.44	6e+10 M⁻¹	1.6e+08 M⁻¹		
monomeric human CD40L (comprising solely the portion of the extracellular domain most homologous to TNF) (from UniProt P27548 112-260) (ligand)					1.2 and 1.27	
dimeric human CD40L (CD40L/Fc) (from UniProt P27548 47-260) (Fc fusion)	0.013	0.049	1.6e+11 M⁻¹	7e+08 M⁻¹		
trimeric human CD40L (CD40L/"leucine zipper"): oligomerizing zipper followed by the extracellular region of human CD40L, amino acids 51-261 (ligand)	0.04	0.68	5e+09 M⁻¹	7.5e+07 M⁻¹	0.41	Site 1 (mol/mol CD40/Fc) (mol/mol CD40/Fc) [4]: 0.26; Ka [5]: 6.6e+08 M⁻¹; Ka [6]: 2.6e+07 M⁻¹
B1						B-cell proliferation (U/µg), Experiment 1 (CD40 on B cells): 77 U/µg; B-cell proliferation (U/µg), Experiment 2 (CD40 on B cells): 15 U/µg; Ka [7]: 7.7e+07 M⁻¹; Ka [8]: 7.4e+08 M⁻¹; Ka [9]: 3e+07 M⁻¹
